Earlier results on 1 substance are cited in publication PMC7109175.

As a reminder, the Kd is the constant that tells how readily two partners part at equilibrium.

This data set addresses cMyBP-C (Mus musculus) (UniProt O70468).
UniProt O70468, sequence (O70468 whole entry): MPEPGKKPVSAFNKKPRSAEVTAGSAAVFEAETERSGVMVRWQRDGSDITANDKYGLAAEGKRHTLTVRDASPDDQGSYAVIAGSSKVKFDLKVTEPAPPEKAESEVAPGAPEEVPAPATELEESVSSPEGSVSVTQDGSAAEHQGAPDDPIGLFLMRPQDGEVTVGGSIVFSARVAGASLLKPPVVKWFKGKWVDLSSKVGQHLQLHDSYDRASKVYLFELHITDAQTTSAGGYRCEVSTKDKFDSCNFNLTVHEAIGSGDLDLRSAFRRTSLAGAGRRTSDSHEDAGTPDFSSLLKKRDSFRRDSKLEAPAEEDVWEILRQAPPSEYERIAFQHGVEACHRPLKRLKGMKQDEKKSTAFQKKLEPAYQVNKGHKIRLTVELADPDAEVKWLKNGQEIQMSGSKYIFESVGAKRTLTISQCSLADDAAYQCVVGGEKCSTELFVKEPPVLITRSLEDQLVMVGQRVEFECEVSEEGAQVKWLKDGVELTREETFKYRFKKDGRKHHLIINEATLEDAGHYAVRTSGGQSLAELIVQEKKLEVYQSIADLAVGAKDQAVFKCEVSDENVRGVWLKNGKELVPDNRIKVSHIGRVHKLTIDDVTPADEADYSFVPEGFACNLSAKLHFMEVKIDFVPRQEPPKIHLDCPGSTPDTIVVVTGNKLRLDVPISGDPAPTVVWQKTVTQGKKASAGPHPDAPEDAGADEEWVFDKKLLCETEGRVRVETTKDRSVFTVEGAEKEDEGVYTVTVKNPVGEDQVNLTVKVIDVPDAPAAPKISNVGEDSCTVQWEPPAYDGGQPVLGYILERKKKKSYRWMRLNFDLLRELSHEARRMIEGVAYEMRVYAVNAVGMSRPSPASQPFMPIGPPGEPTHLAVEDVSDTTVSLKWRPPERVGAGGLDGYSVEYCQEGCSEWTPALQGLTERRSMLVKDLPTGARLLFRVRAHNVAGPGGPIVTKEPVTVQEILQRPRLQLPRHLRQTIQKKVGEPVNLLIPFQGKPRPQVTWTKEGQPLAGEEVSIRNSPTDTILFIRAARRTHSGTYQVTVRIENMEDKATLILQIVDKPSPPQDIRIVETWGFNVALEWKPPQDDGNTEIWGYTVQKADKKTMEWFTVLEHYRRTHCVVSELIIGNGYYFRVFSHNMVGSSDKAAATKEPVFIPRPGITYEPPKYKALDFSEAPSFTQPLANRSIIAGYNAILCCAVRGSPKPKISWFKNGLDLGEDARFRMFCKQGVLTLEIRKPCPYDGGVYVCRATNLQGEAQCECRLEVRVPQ

Consider Fhod3 (from UniProt Q76LL6), for which the Kd is 800 nM.
